# In paper PMC5610305:
# How the values were obtained:
# [1] = target: Plasmodium falciparum actin I (unlabeled) (Plasmodium falciparum) (UniProt Q8I4X0); experiment: native gel or EMSA; native PAGE of 25 µM polymerized PfActI with and without ultracentrifugation at 434,500 g; running buffer with sample-matched ATP:ADP ratio and 0.1 mM MgCl2; SYPRO Orange, densitometry
# [2] = target: Plasmodium falciparum actin I (unlabeled) (Plasmodium falciparum) (UniProt Q8I4X0); experiment: co-sedimentation; pelleting assay: unlabeled actin polymerized overnight at 22 °C in F-buffer (50 mM KCl, 4 mM MgCl2, 1 mM EGTA), ultracentrifugation at 434,500 g or 100,000 g, 20 °C, 1 h; supernatant and pellet by SDS-PAGE densitometry; also at different actin concentrations
# [3] = target: Plasmodium falciparum actin I, pyrene-labeled (Plasmodium falciparum) (UniProt Q8I4X0); experiment: dilution-induced depolymerization (pyrene fluorescence); 30% pyrene-labeled actins, 5 µM polymerized overnight, diluted 100-fold to 50 nM in F-buffer; single-phase exponential decay fit
# [4] = target: Plasmodium falciparum actin I, pyrene-labeled (Plasmodium falciparum) (UniProt Q8I4X0); experiment: other fluorescence titration; steady-state critical concentration in classical non-polymerizing buffer (G-buffer): pyrene-labeled PfActI, 16 h at 20 °C; two-line fit of pyrene fluorescence
# [5] = target: Plasmodium falciparum actin I, pyrene-labeled (Plasmodium falciparum) (UniProt Q8I4X0); experiment: other fluorescence titration; steady-state critical concentration in F-buffer: pyrene-labeled actin polymerized, diluted to a series of concentrations up to 5 µM, 16 h at 20 °C (methods: overnight at 22 °C); two-line fit of pyrene fluorescence
% of total band intensity as dimers [1] [%],% of total band intensity as polymers [1] [%],monomer concentration left at steady state (from the monomer band) [1] [µM],stoichiometry N [1],"% of total protein in the pellet (100,000 g) [2] [%]","% of total protein in the pellet (434,500 g) [2] [%]",apparent rate constant of depolymerization (single-phase decay) [3] [s⁻¹],depolymerization rate constant adjusted by filament concentration (100 nm filament length assumed) [3] [s⁻¹],half-time of depolymerization [3] [s],"Cc (critical concentration, G-buffer, the experiment shown) [4] [µM]","Cc (critical concentration, steady state, G-buffer) [4] [µM]","Cc (critical concentration, F-buffer, the experiment shown) [5] [µM]","Cc (critical concentration, steady state, F-buffer) [5] [µM]",Substance
56.2,43.4,0.11,2,60,70,,,,,,,,Plasmodium falciparum actin I (unlabeled) (from UniProt Q8I4X0 1-376) (natural protein)
,,,,,,0.0093,0.4,74,0.04,0.06,0.13,0.11,"Plasmodium falciparum actin I, pyrene-labeled (from UniProt Q8I4X0 1-376) (natural protein)"
